From CN117368459A (INST MILITARY MEDICINE ACADEMY MILITARY SCIENCES PLA, dated 2024)

B1: Nluc-chC25抗体 (antibody, human IgG1)
light: NIVLTQSPVSLAVSLGQRATISCRASESVDSYGNSFMHWYQQKPGQPPKLLIYIASNLESGVPARFSGGGSRTDFTLTIDPVEADDAATYYCQQNYEDPWTFGGGTKLEIKRADAAPSVFIFPPSDEQLKSGTASVVCLLNNFYPREAKVQWKVDNALQSGNSQESVTEQDSKDSTYSLSSTLTLSKADYEKHKVYACEVTHQGLSSPVTKSFNRGEC
heavy: not shown
notes: also called Nluc-chC25重组抗体; Nluc标记重组抗体
B2: HRP-chC25抗体 (antibody, human IgG1)
light: B1 light
heavy: not shown
notes: also called HRP标记重组抗体; HRP-2C5

Biological target: 新冠病毒S1-RBD蛋白 (新冠病毒 (SARS-CoV-2), UniProt P0DTC2 319-541)
Test: […] (BLI), […], antibody 118 nM to 1.88 nM, 1:1 model

Binder	Kd
B1	0.0151 nM
B2	0.0375 nM
